Assay results published in publication doi:10.1101/2020.04.11.036434 (bioRxiv, 2020).

Legend:
[1] = target: T1, P-Rex2 DEP2-IP4P (residues 472-1606) (UniProt Q70Z35 472-1606); test: SPR
T1 sequence: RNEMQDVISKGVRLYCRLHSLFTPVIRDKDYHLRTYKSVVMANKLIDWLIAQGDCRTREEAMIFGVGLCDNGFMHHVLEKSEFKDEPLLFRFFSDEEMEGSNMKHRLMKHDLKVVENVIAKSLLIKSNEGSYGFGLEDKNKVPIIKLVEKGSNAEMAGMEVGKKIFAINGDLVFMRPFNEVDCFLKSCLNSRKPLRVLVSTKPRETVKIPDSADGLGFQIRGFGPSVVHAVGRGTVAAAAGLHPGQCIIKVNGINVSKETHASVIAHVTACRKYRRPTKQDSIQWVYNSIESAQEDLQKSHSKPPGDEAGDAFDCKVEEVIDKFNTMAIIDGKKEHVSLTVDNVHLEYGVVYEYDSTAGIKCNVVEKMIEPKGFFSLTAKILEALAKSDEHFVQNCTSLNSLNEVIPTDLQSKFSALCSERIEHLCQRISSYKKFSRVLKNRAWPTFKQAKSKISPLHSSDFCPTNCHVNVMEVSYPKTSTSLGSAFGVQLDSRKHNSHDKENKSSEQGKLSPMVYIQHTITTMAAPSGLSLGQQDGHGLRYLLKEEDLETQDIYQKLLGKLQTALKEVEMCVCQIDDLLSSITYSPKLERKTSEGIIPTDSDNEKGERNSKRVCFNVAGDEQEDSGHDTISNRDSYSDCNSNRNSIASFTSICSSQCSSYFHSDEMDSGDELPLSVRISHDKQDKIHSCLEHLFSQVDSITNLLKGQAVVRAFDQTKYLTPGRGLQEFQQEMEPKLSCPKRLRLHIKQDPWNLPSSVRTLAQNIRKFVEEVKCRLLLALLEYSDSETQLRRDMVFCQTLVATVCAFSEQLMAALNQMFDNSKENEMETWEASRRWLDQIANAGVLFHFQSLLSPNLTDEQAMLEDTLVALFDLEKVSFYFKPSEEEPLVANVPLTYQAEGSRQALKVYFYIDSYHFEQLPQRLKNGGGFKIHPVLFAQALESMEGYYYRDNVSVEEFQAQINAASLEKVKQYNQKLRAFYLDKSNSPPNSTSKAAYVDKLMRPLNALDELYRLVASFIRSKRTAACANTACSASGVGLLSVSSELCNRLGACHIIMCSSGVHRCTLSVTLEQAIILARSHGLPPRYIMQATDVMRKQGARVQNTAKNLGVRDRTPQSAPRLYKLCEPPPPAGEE

[2] = target: P-Rex2 (WT), recombinant full-length (UniProt Q70Z35 1-1606); test: pull-down

B1: PTEN (WT), recombinant insect-cell purified (natural protein)
chain: not shown
- binding result [1]: binds
- binding result [2]: binds
